Source: patent US5783384, “Selection of binding-molecules” (President and Fellows of Harvard College)

Biological target: T1, GCN4 basic region peptide with 3-residue linker (monomeric) (UniProt P03069 SEQ:1-24)
T1 chain: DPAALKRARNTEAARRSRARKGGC
Assay: EMSA; disulfide-tethered complex, reduction gel shift with 2-ME or DTT, pH 7.5 or 8.5; outcome only in figure
Settings: protein: synthetic; tags: synthetic peptide, disulfide-tethered to DNA through linker thiol
Method: To test if the reduction potential of the disulfide bond corresponds to the affinity of the peptide for the adjacent DNA sequence, wild-type and mutant double-stranded DNA-peptide complexes were incubated in the presence of reducing agents 2-mercaptoethanol (2-ME) or dithiothreitol (DTT). (FIG. 4) The free (lower bands) vs. coupled DNA molecules (upper bands) were resolved on 20% nondenaturing polyacrylamide gel after. The wild-type peptide-DNA complex (wt) was consistently more resistant to reduction than the complex having mutation in either peptide (L, P) or DNA sequence (M3). Peptide-DNA complexes differ with respect to the gel mobility as well. The mutant complexes (L, P, M3) have lower gel mobility than the wild-type complex (wt), although the corresponding free (uncomplexed) DNA molecules run at the same speed.
Annealing of the oligonucleotide-peptide complex with the complementary oligonucleotide was done as described above, in the binding buffer of the same composition and desired pH (7.5 or 8.5). 2-ME or DTT was added and reactions were incubated at defined temperature in a water bath. Glycerol-running dye mixture was added (final concentration of glycerol is 5%) and reactions were loaded on 20% nondenaturing gel and run at low voltage (up to 120 V) for 16–24 hours at room temperature. (See FIG. 4).

B1: WT GCN4 half-site 39-mer (dsDNA)
DNA 1: AAGGTTAAACGTGCAAGTCATCGGTATAGGTCGAGAAGT
DNA 2: ACTTCTCGACCTATACCGATGACTTGCACGTTTAACCTT
modifications: N6-thioalkyl-dA adjacent to the half-site (disulfide tether)
- binding result: binds
